The values that follow come from patent US20200392252A1 (ALLOGENE THERAPEUTICS, published 2020).

First the molecules themselves.
T1: FokI catalytic domain protein including a C-terminal 6xHis tag and GSGS linker (Flavobacterium okeanokoites, UniProt P14870 426-579)
T1 construct: also called Fok-1; Fok1
T1 sequence: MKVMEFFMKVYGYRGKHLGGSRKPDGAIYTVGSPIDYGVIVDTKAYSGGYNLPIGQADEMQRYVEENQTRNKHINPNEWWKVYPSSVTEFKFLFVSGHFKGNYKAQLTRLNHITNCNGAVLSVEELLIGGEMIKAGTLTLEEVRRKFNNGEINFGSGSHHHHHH

B1: 2299.5D4.C8 (antibody, V domains shown)
VH: QIQLVQSGPELKKPGETVKISCKASGYTFTDYSIHWVKQAPGEGLKWMAWINTETGAPTFADDFKGRLALSLETSANTAYLQINNLKHEDTATYFCAKEGGFYFYAMDYWGQGTSVTVSS
VL: DIVMSQSPSSLAVSAGEKVTMSCKSSQSLLSSRTRKNYLAWYQQKPGQAPKLLISWASTRESGVPDRFTGSGSGTEFTLTISSVQAEDLAVYYCKQSYNLRTFGGGTKLEIK
B2: 2299.6B3.B8.B6 (antibody, V domains shown)
VH: QIQLVQSGPELKKPGETVKISCKASGYAFTDYSIHWMKQAPGEGLQWMGWINTETAKPAFGDDFKGRFAFSLETSANTAHLHINNLRTEDTATYFCAKEGGFYFYAMDYWGQGTSVTVSS
VL: B1 VL with S22N, A49S, S55Y, E61D, E76D, L100F
B3: 2299.7F11.B4 (antibody, V domains shown)
VH: B1 VH with E43K, A57D, F60Y, A61E, L68F, L70F, N77S, H88N, A97S
VL: B1 VL with A49S, S55K, E76D
B4: 2299.2G3.C6 (antibody, V domains shown)
VH: B1 VH
VL: B1 VL with L11R, L52M, S62F, S73F, E76D, A86G, L100F
B5: 2299.6G5.C7 (antibody, V domains shown)
VH: B1 VH with E43K, A49G, L68F, L70F, N77S, Y80F, H88N, V116L
VL: B1 VL with A15T, E76D, Y98F

Changes are numbered by the printed parent chain. Some results are limits rather than exact numbers.

The target in this assay is T1, FokI catalytic domain protein including …. The assay is described as follows: Biacore SPR, antibody as ligand, FokI as analyte. Background: Surface plasmon resonance follows binding to a sensor surface in real time, without labels.
By Kd is commonly meant the constant that tells how readily two partners part at equilibrium. Read a high Kd as weaker binding. For orientation: koff means the rate constant with which the complex falls apart. A higher koff goes with fast dissociation. Broadly, the kon is the second-order rate constant of association. Low values mean slower complex formation, high ones faster complex formation. Consider B1, for which the Kd was < 7.63 nM, the koff was < 8.55e-05 s⁻¹, the kon amounted to 11200 M⁻¹ s⁻¹ and the “t1/2” value is > 2.25 h.

Turning to B2, the Kd is < 8.66 nM, the koff is < 8.55e-05 s⁻¹, the kon amounted to 9870 M⁻¹ s⁻¹ and the “t1/2” value was > 2.25 h.

With B3, the Kd was < 1.13 nM, the koff is < 8.55e-05 s⁻¹, the on-rate (kon) was 75700 M⁻¹ s⁻¹ and the “t1/2” value is > 2.25 h.

For B4, the Kd is < 4.83 nM, the koff was < 8.55e-05 s⁻¹, the kon turned out to be 17700 M⁻¹ s⁻¹ and the “t1/2” value is > 2.25 h.

Take B5: the Kd is < 16.2 nM, the koff was < 8.55e-05 s⁻¹, the kon was 5270 M⁻¹ s⁻¹ and the “t1/2” value is > 2.25 h.
